Source: PMC5137425
pKd: −log10 of the molar value.

How the values were obtained:
[1] = target: C. elegans TDP2 UBA domain, CeTDP2 (41-100) (C. elegans) (UniProt Q9XWG3); experiment: fluorescence polarisation
[2] = target: C. elegans TDP2 UBA domain, CeTDP2 (41-100) (C. elegans) (UniProt Q9XWG3); experiment: NMR titration
[3] = target: Human ubiquitin (monoUb) (human) (UniProt P0CG48); experiment: NMR titration

| Substance | pKd [1] | pKd [2] | pKd [3] |
| --- | --- | --- | --- |
| K48-linked diubiquitin (from UniProt P0CG48 1-76) (complex) | 5.08 | – | – |
| K63-linked diubiquitin (from UniProt P0CG48 1-76) (complex) | – | 4.99 | – |
| C. elegans TDP2 UBA domain, CeTDP2 (41-100) (from UniProt Q9XWG3 41-100) (domain or fragment) | – | – | 4.00 |
| Human ubiquitin (monoUb) (from UniProt P0CG48 1-76) (natural protein) | 4.40 | 3.92 | – |
